What all share (assay): cell-based or functional assay
Assay [1] deals with SARS-CoV2 Spike D614G (on pVSV-Luc-SARS-CoV2-S pseudovirus) (SARS-CoV2) (UniProt P0DTC2).
Assay [2] addresses SARS-CoV2 Spike, Omicron XBB1.5 variant (on pseudovirus) (SARS-CoV2).
The target in assay [3] is SARS-CoV2 Spike, Omicron BA.4.6 variant (on pseudovirus) (SARS-CoV2).
For assay [4], the target named is SARS-CoV2 Spike, Omicron BA.1 variant (on pseudovirus) (SARS-CoV2).
In assay [5] the target is SARS-CoV2 Spike, Omicron BA.2.12.1 variant (on pseudovirus) (SARS-CoV2).
Assay [6] deals with SARS-CoV2 Spike, Omicron BA.4/BA.5 variant (on pseudovirus) (SARS-CoV2).
The target in assay [7] is SARS-CoV2 Spike, Omicron BA.2 variant (on pseudovirus) (SARS-CoV2).

Some results are limits rather than exact numbers.

Sequence of ACE2 (615/615)-IgG-Fc (Q9BYF1 18-615 limits assumed): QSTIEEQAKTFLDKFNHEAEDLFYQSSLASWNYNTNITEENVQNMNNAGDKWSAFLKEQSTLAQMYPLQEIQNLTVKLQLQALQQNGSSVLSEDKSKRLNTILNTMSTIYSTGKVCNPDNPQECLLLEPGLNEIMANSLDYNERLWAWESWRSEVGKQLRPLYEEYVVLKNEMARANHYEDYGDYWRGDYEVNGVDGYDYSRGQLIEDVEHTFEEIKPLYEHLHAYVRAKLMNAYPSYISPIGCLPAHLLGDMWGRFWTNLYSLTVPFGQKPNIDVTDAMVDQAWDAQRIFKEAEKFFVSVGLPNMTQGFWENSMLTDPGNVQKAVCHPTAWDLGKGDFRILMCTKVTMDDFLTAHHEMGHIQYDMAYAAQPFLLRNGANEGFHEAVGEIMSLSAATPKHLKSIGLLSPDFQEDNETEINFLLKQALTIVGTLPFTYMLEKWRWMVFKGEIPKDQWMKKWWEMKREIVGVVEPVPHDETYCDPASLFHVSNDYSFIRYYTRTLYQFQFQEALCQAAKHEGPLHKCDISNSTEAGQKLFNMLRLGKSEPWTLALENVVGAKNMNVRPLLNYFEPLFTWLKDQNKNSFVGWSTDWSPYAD
Sequence of ACE2 (615/615)-IgG-Fc (Q9BYF1 18-615 limits assumed): as above

With REGEN-COV (REGN10933+REGN10987), the figures for the IC50 [M], neutralization in assay [1] and in assay [2] were 5.2e-12 M and > 2e-08 M, respectively.

For the substance “ACE2 v2.4 (615)-Fc (x2), second row of this label in Table 6 (Fc fusion)”, the Fold reduction from against D614G in assay [3] turned out to be 343 fold; in assay [4] it was 240 fold; in assay [1] it was 515 fold; in assay [5] it was 468 fold; in assay [6], 317 fold; in assay [7], 515 fold. Further, the IC50 [M], neutralization was 1.82e-09 M in assay [3]; 1.27e-09 M in assay [4]; 2.73e-09 M in assay [1]; 2.48e-09 M in assay [5]; 1.68e-09 M in assay [6]; 2.73e-09 M in assay [7].

Regarding “ACE2 (615/615)-IgG-Fc (from UniProt Q9BYF1 18-615; Q9BYF1 18-615) (Fc fusion)”, the Fold reduction from against D614G worked out at 6.32 fold in assay [3]; 1.25 fold in assay [4]; 19.4 fold in assay [1]; 2.32 fold in assay [5]; 11.6 fold in assay [6]; 3.51 fold in assay [7]. The IC50 [M], neutralization in assay [3] was found to be 3.35e-11 M; in assay [4] it was 6.61e-12 M; in assay [1], 1.03e-10 M; in assay [5] it was 1.23e-11 M; in assay [6], 6.17e-11 M; in assay [7] it was 1.86e-11 M.

For the origin of these results see US20240252601A1.
